Data as given in patent US10662413B2, “Recombinant DNA polymerase for improved incorporation of nucleotide analogues” (PERSONAL GENOMICS, INC., priority 2016, dated 2020).
Numbering of substitutions follows the chain as printed. In names and notes the source's numbering stands.

T1: Bst-Lg (Bst Large fragment DNA polymerase) (Geobacillus stearothermophilus, UniProt P52026)
T1 construct: Bst Large fragment DNA polymerase; purchased New England Biolabs
T1 sequence (P52026 289-876 limits assumed): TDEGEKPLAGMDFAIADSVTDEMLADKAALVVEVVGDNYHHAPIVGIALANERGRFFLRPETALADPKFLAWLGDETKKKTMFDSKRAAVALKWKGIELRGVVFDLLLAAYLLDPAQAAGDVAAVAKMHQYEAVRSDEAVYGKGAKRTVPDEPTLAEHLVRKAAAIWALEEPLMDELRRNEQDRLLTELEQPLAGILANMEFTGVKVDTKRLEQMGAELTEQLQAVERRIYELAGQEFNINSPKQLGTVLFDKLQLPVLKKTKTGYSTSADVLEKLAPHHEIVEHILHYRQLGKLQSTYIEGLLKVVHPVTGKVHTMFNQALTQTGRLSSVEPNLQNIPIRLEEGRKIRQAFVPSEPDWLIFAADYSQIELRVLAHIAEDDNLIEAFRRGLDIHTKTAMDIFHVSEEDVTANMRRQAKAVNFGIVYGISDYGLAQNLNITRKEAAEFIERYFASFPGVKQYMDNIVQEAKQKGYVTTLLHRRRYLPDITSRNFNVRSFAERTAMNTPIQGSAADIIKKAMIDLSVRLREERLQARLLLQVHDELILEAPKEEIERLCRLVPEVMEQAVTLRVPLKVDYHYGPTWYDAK

B1: D480R: 9° N-III mutant D480R, nucleotide binding pocket (protein)
chain: MILDTDYITENGKPVIRVFKKENGEFKIEYDRTFEPYFYALLKDDSAIEDVKKVTAKRHGTVVKVKRAEKVQKKFLGRPIEVWKLYFNHPQDVPAIRDRIRAHPAVVDIYEYDIPFAKRYLIDKGLIPMEGDEELTMLAFAIATLYHEGEEFGTGPILMISYADGSEARVITWKKIDLPYVDVVSTEKEMIKRFLRVVREKDPDVLITYNGDNFDFAYLKKRCEELGIKFTLGRDGSEPKIQRMGDRFAVEVKGRIHFDLYPVIRRTINLPTYTLEAVYEAVFGKPKEKVYAEEIAQAWESGEGLERVARYSMEDAKVTYELGREFFPMEAQLSRLIGQSLWDVSRSSTGNLVEWFLLRKAYKRNELAPNKPDERELARRRGGYAGGYVKEPERGLWDNIVYLDFRSSAVSIIITHNVSPDTLNREGCKEYDVAPEVGHKFCKDFPGFIPSLLGDLLEERQKIKRKMKATVDPLEKKLLRYRQRLIKILANSFYGYYGYAKARWYCKECAESVTAWGREYIEMVIRELEEKFGFKVLYADTDGLHATIPGADAETVKKKAKEFLKYINPKLPGLLELEYEGFYVRGFFVTKKKYAVIDEEGKITTRGLEIVRRDWSEIAKETQARVLEAILKHGDVEEAVRIVKEVTEKLSKYEVPPEKLVIHEQITRDLRDYKATGPHVAVAKRLAARGVKIRPGTVISYIVLKGSGRIGDRAIPADEFDPTKHRYDAEYYIENQVLPAVERILKAFGYRKEDLRYQKTKQVGLGAWLKVKGKK
B2: L485F: 9° N-III mutant L485F, nucleotide binding pocket (protein)
chain: B1 chain with R480D, L485F
B3: I486A: 9° N-III mutant I486A, nucleotide binding pocket (protein)
chain: B1 chain with R480D, I486A
B4: I486F: 9° N-III mutant I486F, nucleotide binding pocket (protein)
chain: B1 chain with R480D, I486F
B5: I486P: 9° N-III mutant I486P, nucleotide binding pocket (protein)
chain: B1 chain with R480D, I486P
B6: I486R: 9° N-III mutant I486R, nucleotide binding pocket (protein)
chain: B1 chain with R480D, I486R
B7: V282F: 9° N-III mutant V282F, nucleotide binding pocket (protein)
chain: B1 chain with V282F, R480D
B8: I486W: 9° N-III mutant I486W, nucleotide binding pocket (protein)
chain: B1 chain with R480D, I486W
B9: I486Y: 9° N-III mutant I486Y, nucleotide binding pocket (protein)
chain: B1 chain with R480D, I486Y
B10: V410G: 9° N-III mutant V410G, nucleotide binding pocket (protein)
chain: B1 chain with V410G, R480D
B11: V410P: 9° N-III mutant V410P, nucleotide binding pocket (protein)
chain: B1 chain with V410P, R480D
B12: K477F: 9° N-III mutant K477F, nucleotide binding pocket (protein)
chain: B1 chain with K477F, R480D
B13: D480A: 9° N-III mutant D480A, nucleotide binding pocket (protein)
chain: B1 chain with R480A
B14: D480G: 9° N-III mutant D480G, nucleotide binding pocket (protein)
chain: B1 chain with R480G
B15: D480I: 9° N-III mutant D480I, nucleotide binding pocket (protein)
chain: B1 chain with R480I
B16: D480M: 9° N-III mutant D480M, nucleotide binding pocket (protein)
chain: B1 chain with R480M
B17: D480P: 9° N-III mutant D480P, nucleotide binding pocket (protein)
chain: B1 chain with R480P
B18: D480H: KOD^exo− mutant D480H (protein)
chain: B1 chain with R480H
B19: D480N: KOD^exo− mutant D480N (protein)
chain: B1 chain with R480N
B20: D480W: KOD^exo− mutant D480W (protein)
chain: B1 chain with R480W
B21: KOD^exo−: KOD^exo− DNA polymerase with mutations at residues 141 and 143 (SEQ ID NO: 5) (protein)
chain: MILDTDYITEDGKPVIRIFKKENGEFKIEYDRTFEPYFYALLKDDSAIEEVKKITAERHGTVVTVKRVEKVQKKFLGRPVEVWKLYFTHPQDVPAIRDKIREHPAVIDIYEYDIPFAKRYLIDKGLVPMEGDEELKMLAFAIATLYHEGEEFAEGPILMISYADEEGARVITWKNVDLPYVDVVSTEREMIKRFLRVVKEKDPDVLITYNGDNFDFAYLKKRCEKLGINFALGRDGSEPKIQRMGDRFAVEVKGRIHFDLYPVIRRTINLPTYTLEAVYEAVFGQPKEKVYAEEITTAWETGENLERVARYSMEDAKVTYELGKEFLPMEAQLSRLIGQSLWDVSRSSTGNLVEWFLLRKAYERNELAPNKPDEKELARRRQSYEGGYVKEPERGLWENIVYLDFRSLYPSIIITHNVSPDTLNREGCKEYDVAPQVGHRFCKDFPGFIPSLLGDLLEERQKIKKKMKATIDPIERKLLDYRQRAIKILANSYYGYYGYARARWYCKECAESVTAWGREYITMTIKEIEEKYGFKVIYSDTDGFFATIPGADAETVKKKAMEFLKYINAKLPGALELEYEGFYKRGFFVTKKKYAVIDEEGKITTRGLEIVRRDWSEIAKETQARVLEALLKDGDVEKAVRIVKEVTEKLSKYEVPPEKLVIHEQITRDLKDYKATGPHVAVAKRLAARGVKIRPGTVISYIVLKGSGRIGDRAIPFDEFDPTKHKYDAEYYIENQVLPAVERILRAFGYRKEDLRYQKTRQVGLSAWLKPKGT
modifications: Thermococcus kodakarensis kod1; KODexo- DNA polymerase

Experiments:
[1] = target: T2, Klenow (exo-) fragment DNA polymerase (Escherichia coli, UniProt P00582, D355A/E357A); format: biochemical; conditions: PEP assay, read-out: Average IC50 ± SD
T2 construct: Klenow (exo-) fragment DNA polymerase; purchased New England Biolabs
Method: (§1) Accordingly, the end-point concentration, IC50 value, of the respective nucleotide was calculated.

[2] = target: T3, 9°N-I DNA polymerase (Thermococcus sp., UniProt Q56366, A485L/D141A/E143A); experiment: Pre-steady state kinetic assay; format: biochemical, Thermococcus sp. 9° N-7 strain; conditions: 30° C.
T3 construct: made in house; host or cells: E. coli BL21
Method: The rate of incorporation of the correct base onto the 25/36 mer duplex was determined in a reaction. The reaction was initiated by combining the solution containing the enzyme and DNA substrate with the second solution containing Mg^2+/dNTP. The reaction was quenched with 0.25 M EDTA (final concentration), pH 8.0. A rapid quench instrument (KinTek Instrument Corp., State College, Pa.) was used for reaction times ranging from 20 ms to 20 s.

[3] = target: THN (Therminator); experiment: Polymerase end point (PEP) assay; format: biochemical; conditions: read-out: Average IC50 ± SD
Method: as §1

[4] = target: T1, Bst-Lg (Bst Large fragment DNA polymerase); experiment: Polymerase end point (PEP) assay; format: biochemical; conditions: read-out: Average IC50 ± SD
Method: as §1

[5] = target: T4, 9°N-III DNA polymerase (Thermococcus sp., UniProt Q56366, A485L/D141A/E143A/L408S/P410V/Y409A); format: biochemical, Thermococcus sp. 9° N-7 strain; conditions: PEP assay, read-out: Average IC50 ± SD
T4 construct: 6x histidine tag (C); made in house; host or cells: E. coli BL21
Method: as §1

[6] = tested on: 5′Q-3′-Ga
[7] = tested on: 5′Q-3′-Ga; format: biochemical; conditions: KOD^exo− background

Molecule	conversion rate (C.R.) of extension product [6]	other results
Nc1ncnc2c1ncn2[C@H]1C[C@H](O)[C@@H](COP(=O)(O)OP(=O)(O)OP(=O)(O)O)O1 [dATP]		IC50 [1]: 0.589 ± 0.008 nM; Kd [2]: 8000 nM; kpol [2]: 132.4 s⁻¹; kpol/Kd [2]: 1.655e+07 M⁻¹ s⁻¹; IC50 [3]: 0.526 ± 0.008 nM; IC50 [4]: 2.54 ± 0.067 nM; IC50 [5]: 14 ± 0.6 nM
B1	83%	
B2	74%	
B3	82%	
B4	81%	
B5	100%	
B6	87%	
B7	66%	
B8	81%	
B9	82%	
B10	69%	
B11	78%	
B12	82%	
B13	81%	
B14	80%	
B15	82%	
B16	80%	
B17	82%	
B18		conversion of 5′Q-3′-Ga [7]: 84%
B19		conversion of 5′Q-3′-Ga [7]: 83%
B20		conversion of 5′Q-3′-Ga [7]: 77%
B21		conversion of 5′Q-3′-Ga [7]: 37%
